Measured values from paper PMC4347215.

Target: recombinant CA/09 NA, thrombin-cleaved (His-tag depleted) (influenza A virus A/California/07/2009 (H1N1)pdm09) (UniProt C3W5S3)
Experiment: crystal structure

recombinant CA/09 NA, thrombin-cleaved (His-tag depleted) (from UniProt C3W5S3 82-467) (enzyme)
stoichiometry N: 4
